Measurements taken from patent publication US20180055768A1 (Harvard, published 2018).

Target: T1, FLAG-tagged wild-type (wt) ARRDC1 (Homo sapiens, UniProt Q8N5I2 1-433)
T1 construct: Expressed in 293T cells and immunoprecipitated with anti-FLAG; also called Flag-ARRDC1; arrestin domain-containing protein 1; not shown: FLAG tag
T1 sequence: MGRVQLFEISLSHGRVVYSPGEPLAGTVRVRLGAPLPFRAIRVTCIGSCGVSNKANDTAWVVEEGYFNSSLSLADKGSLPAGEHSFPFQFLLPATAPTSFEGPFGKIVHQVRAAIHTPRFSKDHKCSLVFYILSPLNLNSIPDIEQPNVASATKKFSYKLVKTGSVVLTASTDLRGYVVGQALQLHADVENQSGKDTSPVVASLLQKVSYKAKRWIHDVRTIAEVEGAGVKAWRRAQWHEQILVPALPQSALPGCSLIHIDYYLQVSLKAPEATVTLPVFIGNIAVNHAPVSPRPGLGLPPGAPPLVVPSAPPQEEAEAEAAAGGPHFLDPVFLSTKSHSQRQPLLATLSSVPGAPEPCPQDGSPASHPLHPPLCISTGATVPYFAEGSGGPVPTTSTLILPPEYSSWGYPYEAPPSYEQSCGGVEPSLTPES
Assay: co-immunoprecipitation from transfected 293T cells, Western blot (FIG. 1D)

B1: HA-tagged mutant (M95A) TSG101 (other)
chain: MAVSESQLKKMVSKYKYRDLTVRETVNVITLYKDLKPVLDSYVFNDGSSRELMNLTGTIPVPYRGNTYNIPICLWLLDTYPYNPPICFVKPTSSATIKTGKHVDANGKIYLPYLHEWKHPQSDLLGLIQVMIVVFGDEPPVFSRPISASYPPYQATGPPNTSYMPGMPGGISPYPSGYPPNPSGYPGCPYPPGGPYPATTSSQYPSQPPVTTVGPSRDGTISEDTIRASLISAVSDKLRWRMKEEMDRAQAELNALKRTEEDLKKGHQKLEEMVTRLDQEVAEVDKNIELLKKKDEELSSALEKMENQSENNDIDEVIIPTAPLYKQILNLYAEENAIEDTIFYLGEALRRGVIDLDVFLKHVRLLSRKQFQLRALMQKARKTAGLSDLY
notes: Expressed in 293T cells; also called TSG101 M95A; not shown: HA tag
  binding result: no binding
